The target of this assay is T1, ADAMTS13 (Homo sapiens, UniProt Q76LX8).
T1 sequence (Q76LX8 75-1427): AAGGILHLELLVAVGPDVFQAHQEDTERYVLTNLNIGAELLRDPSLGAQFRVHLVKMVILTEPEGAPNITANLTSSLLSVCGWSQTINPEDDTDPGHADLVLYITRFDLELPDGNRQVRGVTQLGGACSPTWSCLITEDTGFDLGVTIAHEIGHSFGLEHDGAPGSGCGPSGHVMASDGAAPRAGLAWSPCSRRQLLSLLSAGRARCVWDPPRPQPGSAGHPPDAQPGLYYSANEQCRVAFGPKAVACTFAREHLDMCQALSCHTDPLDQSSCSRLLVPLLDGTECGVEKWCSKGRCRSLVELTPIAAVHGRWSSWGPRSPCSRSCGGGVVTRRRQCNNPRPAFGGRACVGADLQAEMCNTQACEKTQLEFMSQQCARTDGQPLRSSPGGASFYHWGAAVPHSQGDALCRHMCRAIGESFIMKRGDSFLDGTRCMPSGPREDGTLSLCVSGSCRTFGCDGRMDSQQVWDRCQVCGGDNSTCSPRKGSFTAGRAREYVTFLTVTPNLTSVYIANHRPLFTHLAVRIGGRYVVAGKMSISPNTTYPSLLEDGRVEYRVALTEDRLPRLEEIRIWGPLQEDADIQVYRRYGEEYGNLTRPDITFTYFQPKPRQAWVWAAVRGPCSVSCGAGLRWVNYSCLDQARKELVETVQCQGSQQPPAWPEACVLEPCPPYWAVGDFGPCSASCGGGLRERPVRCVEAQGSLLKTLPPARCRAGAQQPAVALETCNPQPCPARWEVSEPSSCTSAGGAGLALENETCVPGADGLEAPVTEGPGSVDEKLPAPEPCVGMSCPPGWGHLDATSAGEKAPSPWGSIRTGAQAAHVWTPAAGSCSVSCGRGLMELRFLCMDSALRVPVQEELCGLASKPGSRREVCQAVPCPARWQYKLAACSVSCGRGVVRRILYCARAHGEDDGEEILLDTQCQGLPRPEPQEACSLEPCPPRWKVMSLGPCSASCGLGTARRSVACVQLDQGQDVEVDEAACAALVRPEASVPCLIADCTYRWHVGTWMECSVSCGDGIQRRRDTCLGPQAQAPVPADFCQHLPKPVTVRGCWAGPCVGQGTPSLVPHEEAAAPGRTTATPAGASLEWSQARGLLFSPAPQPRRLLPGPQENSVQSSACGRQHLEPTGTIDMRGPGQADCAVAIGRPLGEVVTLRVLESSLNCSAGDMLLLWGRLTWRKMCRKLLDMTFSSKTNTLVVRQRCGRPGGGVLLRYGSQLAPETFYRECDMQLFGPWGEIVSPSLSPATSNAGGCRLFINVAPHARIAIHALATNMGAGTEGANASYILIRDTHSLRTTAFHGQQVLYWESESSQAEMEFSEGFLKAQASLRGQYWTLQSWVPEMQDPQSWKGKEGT
Briefly: Effect of bilirubin and hemoglobin on FRETS-rVWF71 ADAMTS13 assays. The class given is biochemical. Details: FRETS-rVWF71 cleavage by plasma ADAMTS13 (50 μL) was assessed in 200 μL reactions; from tissue; host or cells: human plasma or serum (pooled normal plasma, healthy donors, TTP patients).

Consider hemoglobin, for which the “IC50 for inhibition of ADAMTS13 activity” value (FRETS-rVWF71 substrate) is listed as 10-15 g/L. Also, the “effect on detection of FRETS-rVWF71 cleavage products” value (hemoglobin ≦20 g/L) was “did not affect”.

(Values after patent publication US8663912B2, “Fluorogenic substrate for ADAMTS13” (Washington University, priority 2011, dated 2014).)
